These results are taken from patent US20240382610A1 (TALLAC THERAPEUTICS, published 2024).

Where a chain is given by its changes, count along the chain named.

What all share (experiment): SPR Biacore 8K, mAb on protein A
On the technique in general: SPR reads the build-up and loss of mass on a sensor chip optically.

The target of assay [1] is T1, Cyno nectin-4 ECD-6His (TNT-255) (cynomolgus, UniProt Q96NY8 32-349 (human entry)).
T1 construct: entry includes the 6His tag
T1 chain: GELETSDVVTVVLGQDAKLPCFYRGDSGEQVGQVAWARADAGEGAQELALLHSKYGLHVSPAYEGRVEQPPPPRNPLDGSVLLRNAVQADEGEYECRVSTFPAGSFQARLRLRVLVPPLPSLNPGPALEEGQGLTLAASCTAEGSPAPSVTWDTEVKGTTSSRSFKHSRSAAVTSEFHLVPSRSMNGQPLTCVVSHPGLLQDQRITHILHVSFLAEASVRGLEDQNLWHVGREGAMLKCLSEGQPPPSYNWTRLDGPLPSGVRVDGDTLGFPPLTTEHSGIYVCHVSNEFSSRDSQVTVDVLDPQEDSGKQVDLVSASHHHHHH
Here is the method:
(§1) The running buffer was 10 mM HEPES, pH 7.4, 150 mM NaCl, 3 mM EDTA, 0.05% (v/v) Surfactant P20 (HBS-EP+). […] The nectin-4 analytes were injected in either single-cycle kinetics or multi-cycle kinetics mode at nominal starting concentrations of 300 nM or 900 nM with 3-fold serial dilutions. Association times were monitored for 120 s, and dissociation times were monitored 1800 s at 30 μL/min flow rate. The surfaces were regenerated with 10 mM glycine at pH1.7 or 75 mM phosphoric acid at pH1.6 for two pulses of 15 s at 30 μL/min flow rate.
(§2) The data were processed and analyzed with Biacore 8K Evaluation Software Version 3.0.12.15655 (Cytiva, Global Life Sciences Solutions USA LLC, Marlborough, MA). […] The responses from the nearest buffer blank injection were then subtracted from the reference subtracted data (2-1) to yield double-referenced data. These double-reference data were fit to a simple 1:1 Langmuir binding model with mass transport to determine the apparent association (ka) and dissociation rate constants (kd). The apparent equilibrium dissociation constant or affinity constant was then calculated based on their ratio as (KD=kd/ka).

For assay [2], the target named is T2, Human nectin-4-IgV-6His (TNT-252) (human, UniProt Q96NY8 32-147).
T2 construct: entry includes the 6His tag
T2 sequence: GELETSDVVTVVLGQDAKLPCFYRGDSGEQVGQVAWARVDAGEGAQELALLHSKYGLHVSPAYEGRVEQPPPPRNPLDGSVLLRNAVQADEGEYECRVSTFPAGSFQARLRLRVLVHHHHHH
Here is the method:
as §1, §2

For assay [3], the target named is T3, Human nectin-4 ECD-6His (TNT-175) (human, UniProt Q96NY8 32-349).
T3 construct: the entry holds the extracellular domain with the C-terminal 6His tag
T3 sequence: T1 chain with A39V, V230I
Here is the method: as §1, §2

The target in assay [4] is T4, Mouse nectin-4 ECD-6His (TNT-250) (mouse, UniProt Q8R007 31-347).
T4 construct: entry includes the 6His tag; also called mouse nectin-4-LCD
T4 sequence: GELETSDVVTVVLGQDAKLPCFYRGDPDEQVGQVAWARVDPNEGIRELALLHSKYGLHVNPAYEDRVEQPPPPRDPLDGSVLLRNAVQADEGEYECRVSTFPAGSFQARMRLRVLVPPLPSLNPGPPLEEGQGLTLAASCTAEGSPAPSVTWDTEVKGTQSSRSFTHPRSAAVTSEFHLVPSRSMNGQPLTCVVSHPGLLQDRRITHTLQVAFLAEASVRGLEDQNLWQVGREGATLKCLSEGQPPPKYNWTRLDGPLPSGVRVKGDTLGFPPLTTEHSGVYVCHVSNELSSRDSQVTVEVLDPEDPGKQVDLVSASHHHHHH
On the procedure:
as §1, §2

B1: TNT-323 (antibody, V domains shown)
VH: QVQLQESGPGLVKPSETLSLTCTVSGGSISSYFWNWIRQPPGKGLEWIGYLYYIGTTNYNPSLKSRVTISVDTSKNQFSLKLNSVTAADTAVYYCARSGNYYNDAFDIWGQGTMVTVSS
VL: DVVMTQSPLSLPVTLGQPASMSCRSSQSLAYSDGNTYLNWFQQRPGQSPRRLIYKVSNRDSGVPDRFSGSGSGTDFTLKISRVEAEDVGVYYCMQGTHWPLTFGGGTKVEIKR
notes: human IgG1
In the case of B1, the Kd – broadly, the concentration at which binding is half-saturated – in assay [1] came to 8.67 nM; in assay [3] it was 9 nM. Moreover, the binding result in assay [2] and in assay [4] was “no binding (tested: up to 300 or 900 nM analyte)” each time.

B2: TNT-327 (antibody, V domains shown)
VH: QVQLQESGPGLVKPSETLSLTCTVSGGSISDYYWIWIRQPAGKGLEWIGRIYTTGGAKYNPSLKSRVTMSIDTSKNNFSLKLSSVTAADTAVYFCARDRNWEWNFDLWGRGTLVTVSS
VL: QSALTQPASVSGSPGQSITISCTGTTSDIGSYNLVSWYQQHPGKAPKLMIYEVSMSPSGVSDRFSGSKSGSTASLTISGLQAEDEADYYCSSYAGSSTVVFGGGTRLTVLG
notes: human IgG1
For the molecule B2, the Kd in assay [1] was determined as 2.85 nM; in assay [2], 1.64 nM; in assay [3], 3.63 nM. Moreover, the binding result in assay [4] is “no binding (tested: up to 300 or 900 nM analyte)”.

B3: TNT-320 (antibody, V domains shown)
VH: QVQLVQSGAEVKKPGASVKVSCKASGYTFTVYYIHWVRQAPGQGLEWMGWISPNSGGTNYAQKFQGRVTMTRDTSISTAYMELTRLRSDDTAIFYCARQTVVTPNWGFDYWGQGTLVTVSS
VL: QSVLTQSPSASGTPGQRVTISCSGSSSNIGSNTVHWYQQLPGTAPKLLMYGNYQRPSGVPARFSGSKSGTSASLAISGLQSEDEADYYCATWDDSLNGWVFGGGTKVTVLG
notes: human IgG1
As to B3, the results for the Kd in assay [1], in assay [2] and in assay [3] were 35.9 nM, 9.91 nM and 18.4 nM, respectively. Moreover, the binding result in assay [4] is “no binding (tested: up to 300 or 900 nM analyte)”.

B4: TNT-324 (antibody, V domains shown)
VH: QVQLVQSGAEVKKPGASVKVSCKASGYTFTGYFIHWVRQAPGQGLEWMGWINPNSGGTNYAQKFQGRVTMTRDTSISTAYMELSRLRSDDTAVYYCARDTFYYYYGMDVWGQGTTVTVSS
VL: QTVVTQEPSLTVSPGGTVTLTCASSTGAVTSGYYPNWFQQKPGQAPRALIYSTSNKHSWTPARFSGSLLGGKAALTLSGVQPEDEAEYYCLLYYDGAHLFGGGTKLTVLG
notes: human IgG1
On to B4, for which the results for the Kd in assay [1], in assay [2] and in assay [3] were 24.4 nM, 30.7 nM and 64.5 nM, respectively. Moreover, the binding result in assay [4] is listed as “no binding (tested: up to 300 or 900 nM analyte)”.

B5: TNT-330 (antibody, V domains shown)
VH: EVQLVESGGGLVKPGGSLRLSCAVSGFTFSSYNMNWVRQAPGKGLEWVSSISISSSYIYYADSVKGRFTISRDNAKNSLYLQMNSLRAEDTAVYYCARDRGLDDAFDIWGQGTVVTVSS
VL: DIVMTQTPLSLPVTPGEPASISCRSSQSLLDSDDGNTYLDWYLQKPGQSPQLLIYTLSYRASGVPDRFSGSGSGTDFTLKVSRVEAEDVGVYYCMQRIEFPYTFGQGTKLEIKR
notes: human IgG1
Turning to B5, the Kd in assay [1] is 13.7 nM; in assay [2], 7.3 nM; in assay [3], 16.4 nM. Moreover, in assay [4], the binding result is recorded as “no binding (tested: up to 300 or 900 nM analyte)”.

B6: TNT-317 (antibody, V domains shown)
VH: QVQLQESGPGLVKPSETLSLTCTVSGGSISSYFWSWIRQPPGKGLEWIGYIYYSGNTNYNPSLKSRVTISVDMSKNQFSLRLSSVTAADTAVYYCARDFHHYDGSAYRWYFDLWGRGTLVTVSS
VL: QSVLTQPPSVSAAPGQKVTISCSGSSSNIGNNYVSWYQQFPGTAPKLLIYDNNKRPSGIPDRFSGSKSGTSATLGITGLQTGDEADYYCGTWDSSLNAGWVFGGGTKLTVLG
notes: human IgG1
Take B6: the Kd in assay [1] was 18.3 nM; in assay [3], 15.7 nM. For the same molecule, the binding result in assay [2] and in assay [4] was “no binding (tested: up to 300 or 900 nM analyte)” each time.

B7: TNT-322 (antibody, V domains shown)
VH: QVQLQESGPGLVKPSATLSLTCTVSGGSISSYYWNWIRQPPGKGLEWIGYIYYSGNTNYNPSLKSRVTISVDMSKNQFSLKLNSVTAADTAVYYCARSESYGYWFFYLWGRGTLVTVSS
VL: B6 VL with N97S, W100V
notes: human IgG1
On to B7, for which the results for the Kd in assay [1] and in assay [3] were 51.5 nM and 57.9 nM, respectively. Besides, the binding result in assay [2] and in assay [4] was “no binding (tested: up to 300 or 900 nM analyte)” throughout.

B8: TNT-328 (antibody, V domains shown)
VH: QVQLQESGPGLVKPSETLSLTCTVSGGSMSSYFWSWIRQPPERGLEWVGYMYYSGNTNYNPSLKSRVTTSIDTSKNQFSLKLTSVTAADTAVYYCARSGNFYWNFDLWGRGTLVTVSS
VL: QSVLTQPPSVSGAPGQRVTISCTGSSSNIGAGYNVHWYQQLPGTAPKVLISGNSNRPSGVPDRFSGSKSGTSASLAITGLQAEDEADYYCQSYDSSLSGSAVFGGGTKLTVLG
notes: human IgG1
As for B8, the Kd in assay [1] was determined as 1.78 nM; in assay [3], 1.59 nM. Besides, the binding result in assay [2] and in assay [4] was “no binding (tested: up to 300 or 900 nM analyte)” throughout.

B9: TNT-321 (antibody, V domains shown)
VH: QVQLQESGPGLVKPSETLSLTCTVSGGSISSYYWSWIRQPPGKGLEWIGYIYYSGNVNYNPSLKSRVTISVDASKNQFSLKLTSVTAADTAVYYCAIGGVGAQWDAFDIWGQGTMVTVSS
VL: DIQMTQSPSAMSASVGDRVTITCRASQGISNYLAWFQQKPGKVPKRLIYAASSLQSGVPSRFSGSGSGTEFTLTISSLQPEDFATYYCLQHSFYPLTFGPGTKVDIKR
notes: human IgG1
For B9, the Kd was 56 nM in assay [1], 11.6 nM in assay [2] and 14 nM in assay [3]. Moreover, the binding result in assay [4] is given as “no binding (tested: up to 300 or 900 nM analyte)”.

B10: TNT-318 (antibody, V domains shown)
VH: QVQLQESGPGLVKPSETLSLTCTVSGGSISSNYWTWIRQSAGKGLEWIGRIHISESTNYNPSLKSRVTMSVDTSKNQFSLKLSSVTAADTAVYFCAREGEWKVLGAFDIWGQGTMVTVSS
VL: QTVLTQPSSLSASPGASASLTCTLRSGINVGSYRIYWYQQKPGSPPQFLLRYKSDSDKQQGSGVPSRFSGSKDDSANAGILLISGLQSEDEADYYCMIWHSSASVFGTGTKVTVLG
notes: human IgG1
In the case of B10, the dissociation constant Kd turned out to be 211 nM in assay [1] and 260 nM in assay [3]. The binding result in assay [2] and in assay [4] was “no binding (tested: up to 300 or 900 nM analyte)” in each case.

B11: TNT-205 (antibody, human IgG1, kappa)
heavy: not shown
light: DIVMTQSPSSLSASVGDRVTITCRASQGISNYLAWYQQKPGKVPKLLIYAASTLQSGVPSRFSGSGSGTDFTLTISSLQPEDVATYYCQKYNSAPYTFGQGTKVEIKRTVAAPSVFIFPPSDEQLKSGTASVVCLLNNFYPREAKVQWKVDNALQSGNSQESVTEQDSKDSTYSLSSTLTLSKADYEKHKVYACEVTHQGLSSPVTKSFNRGEC
In the case of B11, the Kd in assay [1] was determined as 727 nM; in assay [2], 75.3 nM; in assay [3] it was 53.9 nM; in assay [4], 820 nM.

B12: TNT-211 (antibody, human IgG1, kappa)
heavy: not shown
light: B11 light with D70E, T74A, V83L, K90Q, Y91L, A94H, Y96I, K103R, V104L
In the case of B12, the Kd in assay [1] was 48.9 nM; in assay [2], 24.3 nM; in assay [3], 24.3 nM; in assay [4], 68.4 nM.
